From article PMC4694755

Target: Mouse importin β (mouse) (UniProt P70168)
Experiment: SPR

Sequence of Mouse importin β (mouse) (P70168 whole entry): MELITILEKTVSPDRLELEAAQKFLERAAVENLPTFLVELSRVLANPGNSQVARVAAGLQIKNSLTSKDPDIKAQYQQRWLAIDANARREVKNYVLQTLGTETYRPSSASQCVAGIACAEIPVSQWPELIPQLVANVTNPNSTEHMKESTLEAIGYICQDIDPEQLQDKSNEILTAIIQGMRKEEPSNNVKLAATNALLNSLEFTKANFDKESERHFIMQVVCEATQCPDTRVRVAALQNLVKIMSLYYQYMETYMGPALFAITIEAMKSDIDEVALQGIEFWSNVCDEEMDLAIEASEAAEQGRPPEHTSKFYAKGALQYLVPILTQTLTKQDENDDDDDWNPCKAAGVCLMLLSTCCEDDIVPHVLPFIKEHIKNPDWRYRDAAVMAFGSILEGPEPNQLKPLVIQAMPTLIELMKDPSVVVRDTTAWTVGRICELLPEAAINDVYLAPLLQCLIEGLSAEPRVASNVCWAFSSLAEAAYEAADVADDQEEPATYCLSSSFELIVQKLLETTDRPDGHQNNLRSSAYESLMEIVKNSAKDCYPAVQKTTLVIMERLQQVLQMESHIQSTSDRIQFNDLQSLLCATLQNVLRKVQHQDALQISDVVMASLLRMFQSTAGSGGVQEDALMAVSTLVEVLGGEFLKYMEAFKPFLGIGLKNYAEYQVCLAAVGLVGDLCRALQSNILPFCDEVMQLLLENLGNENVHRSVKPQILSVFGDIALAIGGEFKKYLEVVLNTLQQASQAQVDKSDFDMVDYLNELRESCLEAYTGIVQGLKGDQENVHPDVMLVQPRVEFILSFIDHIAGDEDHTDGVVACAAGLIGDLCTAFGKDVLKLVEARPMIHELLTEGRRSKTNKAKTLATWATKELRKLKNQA

- koff: 0.00107 s⁻¹
- kon: 44400 M⁻¹ s⁻¹
Substance: human RanGTP (from UniProt P62826 1-216) (natural protein; other documents disagree on this pair)
